Bridges are numbered along the chain shown (N, C = ends). Where no end group is shown, it is not given here.

For one assay, the target named is T1, C5/D5 Fab.
T1 construct: Prepared by papain digestion of C5/D5; also called C5/D5 Fab fragment
Briefly: competition ELISA: C5/D5 Fab (1 µg/ml) on coated purified CD47 with increasing peptide. As to the method: Figure 5: FIG. 5 is a graph that illustrates the effect of synthetic peptide C5/D5.1 ([…]) (SEQ. ID NO: 2) and control peptide C5/D5.4 ([…]) (SEQ. ID NO: 34), C5/D5.11 ([…]) (SEQ. ID NO: 36) and C5/D5.12 ([…]) (SEQ. ID NO: 6) on binding of C5/D5 Fab to CD47. CD47 was purified from human PMN or RBC as previously described (Liu, et al., Journal of Biological Chemistry, 277(12): 10028-36, 2002). The experiments were performed by coating microtiter plates with purified CD47 (in 1% octylglucoside containing buffer, used as 1:50 dilution) for 2 hour (hr). After blocking, C5/D5 Fab (1 µg/ml) was added without or with increasing amount of peptides. C5/D5 Fab binding was detected by a peroxidase conjugated goat anti-mouse secondary antibody. The data represent the mean and the standard deviation of triplicate wells.
To confirm that peptide C5/D5.1 simulates the natural epitope of CD47 recognized by mAb C5/D5, experiments were performed to test if this peptide can compete with CD47 in binding to C5/D5. Purified human CD47 from PMN and RBC was used to coat microtiter plates followed by incubation with C5/D5 Fab (1 μg/ml) either in the absence or presence of increasing amount C5/D5.1 or other control peptides. […] In contrast, control peptides, including C5/D5.11 (SEQ ID NO:36) and C5/D5.12 (SEQ ID NO:6) had no inhibition at concentrations up to 10 mM (FIG. 5). […]
In general terms: In an ELISA, binding on a coated surface is turned into a signal by an enzyme label.

Assay [1] concerns the target T2, SIRPα1-GST: extracellular domain of SIRPα1 fused to GST (UniProt P78324 31-373).
T2 construct: extracellular domain; Produced in 293E cells as in Seiffert et al; also called SIRPα-GST; SIRP-GST; not shown: glutathione S-transferase (GST)
Nature of the assay: direct binding of synthetic peptide.

Assay [2] addresses T2, SIRPα1-GST: extracellular domain of …. Nature of the assay: plate binding assay, JAM-AP and SIRPα-GST.

T2 sequence (P78324 31-373): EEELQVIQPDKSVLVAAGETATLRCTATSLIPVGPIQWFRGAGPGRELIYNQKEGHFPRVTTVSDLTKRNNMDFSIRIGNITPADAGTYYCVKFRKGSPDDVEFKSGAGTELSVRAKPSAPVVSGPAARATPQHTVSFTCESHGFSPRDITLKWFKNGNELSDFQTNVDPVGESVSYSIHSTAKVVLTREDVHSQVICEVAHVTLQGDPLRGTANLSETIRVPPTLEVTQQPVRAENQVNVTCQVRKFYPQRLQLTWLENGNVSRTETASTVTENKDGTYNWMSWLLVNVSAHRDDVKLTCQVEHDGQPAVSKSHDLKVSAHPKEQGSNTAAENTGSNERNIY

B1: synthetic peptide C5/D5.1 (CERVIGTGWVRC) (peptide)
peptide: CERVIGTGWVRC
modifications: disulfide 1-12 (inferred)
B1 yielded an IC50 with C5/D5 Fab of 3.8 mM. In other words, the millimolar range.

B2: linear CD47 peptide comprising EVTELTREG (aa115-123 of SEQ ID NO: 9) (peptide)
peptide: EVTELTREG
For B2, the binding result in assay [1] is given as “no binding”.

B3: linear CD47 peptide comprising SSAKIEVSQLLK (aa82-93 of SEQ ID NO: 9) (peptide)
peptide: SSAKIEVSQLLK
Turning to B3, the binding result in assay [1] is listed as “no binding”.

B4: JAM-AP: extracellular domain of junctional adhesion molecule (JAM) fused to alkaline phosphatase (other, UniProt Q9Y624 28-238, looked up)
chain: SVTVHSSEPEVRIPENNPVKLSCAYSGFSSPRVEWKFDQGDTTRLVCYNNKITASYEDRVTFLPTGITFKSVTREDTGTYTCMVSEEGGNSYGEVKVKLIVLVPPSKPTVNIPSSATIGNRAVLTCSEQDGSPPSEYTWFKDGIVMPTNPKSTRAFSNSSYVLNPTTGELVFDPLSASDTGEYSCEARNGYGTPMTSNAVRMEAVERNVGV
notes: extracellular domain; Control AP fusion protein; not shown: alkaline phosphatase (as in CD47-AP)
As to B4, the binding result in assay [2] is listed as “no binding”.

As usually defined, the IC50 is the concentration at which inhibition is half-maximal.

These data come from patent publication US7282556 (EMORY UNIVERSITY, dated 2007).
